# Test results published in patent US20190263905A1 (DINONA, published 2019).
# B1: recombinant humanized anti-CD66c antibody Protein ID 3004 (Vk7 + VH5) (antibody, human IgG1, V domains shown)
# VH: QVQLVQSGAEVKKPGASVKISCKASGYSFTDYTMNWVRQAHGQNLEWIGLINPFHGGTVSNQRFKVKATLTVDVSTNTAYMELSRLRSDDTAVYYCVRGDPVRHYYALAYWGQGTLVTVSS
# VL: DIQMTQSPSTLSASVGDRVTITCGASENVYGTLNWYQRKPGKAPKLLIYGATNLADGVPSRFSGSGSGTEYTLTISSLQPDDFATYYCQNVLSAPYTFGGGTKLEIK
# notes: also called #41
# B2: recombinant humanized anti-CD66c antibody Protein ID 3046 (Vk8 + VH7) (antibody, human IgG1, V domains shown)
# VH: QVQLVQSGAEVKKPGASMKISCKASGYSFTDYTMNWVRQAPGQGLEWIGLINPFHGGTVSNQRFKVKATLTVDVSTNTAYMELSRLRSDDTAVYYCVRGDPVRHYYALAYWGQGTLVTVSS
# VL: DIQMTQSPSTLSASVGDRVTITCRASENVYGTLNWYQRKPGKAPKLLIYGATNLADGMPSRFSGSGSGTEYTLTISSLQPDDFATYYCQNVLSAPYTFGGGTKLEIK
# notes: also called #74
# B3: recombinant humanized anti-CD66c antibody Protein ID 3010 (Vk7 + VH7) (antibody, human IgG1, V domains shown)
# VH: QVQLVQSGAEVKKPGASMKISCKASGYSFTDYTMNWVRQAPGQGLEWIGLINPFHGGTVSNQRFKVKATLTVDVSTNTAYMELSRLRSDDTAVYYCVRGDPVRHYYALAYWGQGTLVTVSS
# VL: DIQMTQSPSTLSASVGDRVTITCGASENVYGTLNWYQRKPGKAPKLLIYGATNLADGVPSRFSGSGSGTEYTLTISSLQPDDFATYYCQNVLSAPYTFGGGTKLEIK
# notes: also called #45
# B4: recombinant humanized anti-CD66c antibody Protein ID 3019 (Vk7 + VH10) (antibody, human IgG1, V domains shown)
# VH: QVQLVQSGAEVKKPGASVKVSCKASGYSFTDYTMNWVKQAPGQNLEWIGLINPFHGGTVSNQRFKVKATMTVDVSTNTAYMELSRLRSDDTAVYYCVRGDPVRHYYALAYWGQGTLVTVSS
# VL: DIQMTQSPSTLSASVGDRVTITCGASENVYGTLNWYQRKPGKAPKLLIYGATNLADGVPSRFSGSGSGTEYTLTISSLQPDDFATYYCQNVLSAPYTFGGGTKLEIK
# notes: also called hu 3019; #51
# Columns and labels:
# [1] = target: T1, CD66c (CEACAM6) on CD66c-positive A549 non-small-cell lung cancer cells (UniProt P40199 35-320, limits assumed); test: flow cytometry on CD66c-positive A549 cells, FITC anti-human IgG
# T1 construct: whole, on cells; also called CD66c antigen; NCA-90
# T1 sequence (looked up): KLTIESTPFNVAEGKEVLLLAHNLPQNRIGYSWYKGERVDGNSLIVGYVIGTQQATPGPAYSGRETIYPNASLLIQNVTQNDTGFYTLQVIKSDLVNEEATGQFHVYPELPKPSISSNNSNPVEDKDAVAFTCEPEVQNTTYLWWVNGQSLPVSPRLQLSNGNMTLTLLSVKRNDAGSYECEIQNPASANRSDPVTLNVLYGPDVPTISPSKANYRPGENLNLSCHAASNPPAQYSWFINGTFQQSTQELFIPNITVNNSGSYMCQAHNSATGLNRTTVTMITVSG
# Method: (§1) Each expressed 96 recombinant humanized antibody was poured and reacted in a test tube containing the same amount ([…]) of CD66c-positive A549 non-small-cell lung cancer cell line at 4° C. for 30 minutes, washed with PBS, and treated with FITC-conjugated goat anti-Human IgG (DiNona Inc, Korea) was added and incubated at 4° C. for 15 minutes. After washing with PBS, the cells were analyzed with a flow cytometer (Stratedigm, S1000EXi) and the results are shown below.
# (§2) Among the 96 recombinant humanized antibody candidates, eight were firstly selected based on the degree of expression, the presence of aggregation, and the degree of cell binding (Table 9 and Table 10, FIGS. 3A to 3E).
# [2] = target: T1, CD66c (CEACAM6) on CD66c-positive A549 …; test: flow cytometry on A549 cells, relative to chimeric antibody
# Method: as §1, §2
# [3] = target: T1, CD66c (CEACAM6) on CD66c-positive A549 …; test: flow cytometry on CD66c-positive A549 cells, mean fluorescence
# Method: as §1, §2
# [4] = target: T2, Antigen CD66c (CEACAM6; Sino Biological, Inc.) (UniProt P40199 35-320); test: ELISA, coated CEACAM6 100 ng/well, antibody 41.15 ng/ml
# T2 construct: Bought antigen coated on the ELISA plate; construct not described; also called CD66c antigen; CECACAM6
# T2 sequence (looked up): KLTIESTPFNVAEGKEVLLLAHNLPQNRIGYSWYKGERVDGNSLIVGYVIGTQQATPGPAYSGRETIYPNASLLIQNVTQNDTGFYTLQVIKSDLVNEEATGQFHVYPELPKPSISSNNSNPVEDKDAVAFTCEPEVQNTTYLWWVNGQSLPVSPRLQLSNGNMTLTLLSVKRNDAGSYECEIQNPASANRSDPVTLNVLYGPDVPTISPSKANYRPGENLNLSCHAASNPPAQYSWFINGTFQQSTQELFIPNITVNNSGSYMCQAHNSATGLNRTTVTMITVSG
# Method: (§3) Antigen CD66c (CEACAM6; Sino Biological, Inc.) and CEACAM1 antigen (Sino Biological, Inc.) were coated on a 96-well plate at 100 ng per well and then blocked. The primary antibody was diluted serially three fold from 10 ug/ml at initial concentration and was bound at 37° C. for 1 hour, and goat anti-Human Ig-HRP conjugate (Jackson ImmunoResearch) as a secondary antibody was diluted 1:10,000 and incubated at 37° C. for 30 minutes. The washing was carried out at three times between each step, and the TMB reaction was performed, stopped with 1N H₂SO₄ solution at the same amount of TMB solution (100 ul) and then OD value was measured at 450 nm.
# (§4) As a result of the experiment, the binding affinities to CD66c antigen of the five kinds of recombinant humanized antibodies selected from among 96 kinds of recombinant humanized antibodies are shown in FIG. 4a, Table 12, FIG. 4b and Table 13. FIG. 4a and Table 12 show the binding capacity of the antibodies to CECACAM6 CD66c) antigen, and FIG. 4b and Table 13 are the results for the CEACAM1 (CD66a) antigen.
# [5] = target: T2, Antigen CD66c (CEACAM6; Sino …); test: ELISA, coated CEACAM6 100 ng/well, antibody 13.72 ng/ml
# Method: as §3, §4
# [6] = target: T2, Antigen CD66c (CEACAM6; Sino …); test: ELISA, coated CEACAM6 100 ng/well, antibody 10000.00 ng/ml
# Method: as §3, §4
# [7] = target: T2, Antigen CD66c (CEACAM6; Sino …); test: ELISA, coated CEACAM6 100 ng/well, antibody 0.51 ng/ml
# Method: as §3, §4
# [8] = target: T2, Antigen CD66c (CEACAM6; Sino …); test: ELISA, coated CEACAM6 100 ng/well, antibody 1111.11 ng/ml
# Method: as §3, §4
# [9] = target: T2, Antigen CD66c (CEACAM6; Sino …); test: ELISA, coated CEACAM6 100 ng/well, antibody 0.17 ng/ml
# Method: as §3, §4
# [10] = target: T2, Antigen CD66c (CEACAM6; Sino …); test: ELISA, coated CEACAM6 100 ng/well, antibody 1.52 ng/ml
# Method: as §3, §4
# [11] = target: T2, Antigen CD66c (CEACAM6; Sino …); test: ELISA, coated CEACAM6 100 ng/well, antibody 4.57 ng/ml
# Method: as §3, §4
# [12] = target: T2, Antigen CD66c (CEACAM6; Sino …); test: ELISA, coated CEACAM6 100 ng/well, antibody 370.37 ng/ml
# Method: as §3, §4
# [13] = target: T2, Antigen CD66c (CEACAM6; Sino …); test: ELISA, coated CEACAM6 100 ng/well, antibody 3333.33 ng/ml
# Method: as §3, §4
# [14] = target: T2, Antigen CD66c (CEACAM6; Sino …); test: ELISA, coated CEACAM6 100 ng/well, antibody 123.46 ng/ml
# Method: as §3, §4
binder,measurement,setting,value
B1,% gated,[1],71%
same,% (% gated × mean),[2],85%
same,Mean,[3],541
B2,% gated,[1],71%
same,% (% gated × mean),[2],82.2%
same,Mean,[3],523
B3,% gated,[1],70%
same,% (% gated × mean),[2],85.8%
same,Mean,[3],554
B4,OD 450 nm,[4],2.45 OD
same,OD 450 nm,[5],1.77 OD
same,OD 450 nm,[6],3.13 OD
same,% gated,[1],70%
same,% (% gated × mean),[2],86.9%
same,OD 450 nm,[7],0.8 OD
same,OD 450 nm,[8],3.34 OD
same,OD 450 nm,[9],0.68 OD
same,Mean,[3],561
same,OD 450 nm,[10],0.95 OD
same,OD 450 nm,[11],1.32 OD
same,OD 450 nm,[12],3.23 OD
same,OD 450 nm,[13],3.26 OD
same,OD 450 nm,[14],3.04 OD
